By Ki is commonly meant a measure of affinity in units of concentration, obtained from inhibition or displacement.

The target in this assay is Recombinant human furin (human), P09958. Put plainly: furin, Pyr-RTKR-AMC cleavage.
Recombinant human furin (human), P09958, sequence (P09958 108-714 limits assumed): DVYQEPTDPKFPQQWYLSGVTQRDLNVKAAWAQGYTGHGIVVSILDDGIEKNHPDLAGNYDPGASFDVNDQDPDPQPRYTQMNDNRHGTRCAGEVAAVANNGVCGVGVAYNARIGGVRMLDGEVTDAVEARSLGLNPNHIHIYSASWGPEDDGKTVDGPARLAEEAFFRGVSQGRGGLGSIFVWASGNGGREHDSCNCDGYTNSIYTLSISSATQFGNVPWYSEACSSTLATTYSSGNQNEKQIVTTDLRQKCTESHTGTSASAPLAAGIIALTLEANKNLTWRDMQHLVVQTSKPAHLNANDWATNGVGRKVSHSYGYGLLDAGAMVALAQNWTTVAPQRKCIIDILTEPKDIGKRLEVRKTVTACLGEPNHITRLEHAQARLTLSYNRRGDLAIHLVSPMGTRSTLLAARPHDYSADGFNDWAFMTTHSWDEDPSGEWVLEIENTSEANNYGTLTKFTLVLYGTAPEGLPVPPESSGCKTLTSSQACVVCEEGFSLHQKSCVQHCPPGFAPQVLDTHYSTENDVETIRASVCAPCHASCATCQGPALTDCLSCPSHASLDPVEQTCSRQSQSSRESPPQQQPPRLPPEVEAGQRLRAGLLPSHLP
On to RKKRT (modifications not checked), for which the inhibition constant (Ki) was 1000 nM.
The figure for RRRKKRT (modifications not checked) is 17.6 nM.
Turning to RRKKRT (modifications not checked), the inhibition constant Ki was 32.5 nM.
With TPRERRRKAAV (modifications not checked) […], the Ki was above 100 nM.

Values taken from patent US20090029924A1.
